Measurements as given in US20180155450A1 (Sanofi, published 2018).

T1: recombinant human IL4 (human, UniProt P05112 25-153)
T1 construct: bought; also called Antigen1
T1 sequence (looked up): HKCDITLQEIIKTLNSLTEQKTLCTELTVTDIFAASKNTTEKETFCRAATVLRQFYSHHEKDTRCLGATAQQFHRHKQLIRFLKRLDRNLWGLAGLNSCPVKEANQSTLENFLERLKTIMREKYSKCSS

T2: recombinant human IL4 (human, UniProt P05112 25-153)
T2 sequence (looked up): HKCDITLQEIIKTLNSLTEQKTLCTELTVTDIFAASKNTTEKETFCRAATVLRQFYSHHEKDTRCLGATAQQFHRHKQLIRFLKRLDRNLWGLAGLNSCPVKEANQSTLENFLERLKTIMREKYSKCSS


What was measured:
[1] = target: T1, recombinant human IL4; assay: SPR (Biacore 3000), captured CODV-Ig, antigen as analyte;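 also: kd derived from kinetic fits in BIAevaluation 4.1, with signals referenced against a flow cell lacking captured antibody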
Protocol: (§1) Kinetic binding analysis by Biacore was performed as follows. Surface plasmon resonance technology on a Biacore 3000 (GE Healthcare) was used for detailed kinetic characterization of purified antibodies. […] Chip surfaces were regenerated with 10 mM glycine pH 2.5. Kinetic parameters were analyzed and calculated in the BIAevaluation program package v4.1 using a flow cell without captured antibody as a reference.

[2] = target: T3, recombinant human IL13 (human, UniProt P35225 35-146, limits assumed); assay: as above
T3 construct: bought; also called Antigen2
T3 sequence (P35225 35-146 limits assumed): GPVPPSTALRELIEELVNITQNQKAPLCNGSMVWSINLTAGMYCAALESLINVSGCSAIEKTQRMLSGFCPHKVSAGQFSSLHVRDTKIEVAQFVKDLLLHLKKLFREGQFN
Protocol: as §1

[3] = target: T2, recombinant human IL4; assay: cell-based or functional assay
[4] = target: T2, recombinant human IL4; assay: SPR (Biacore 3000), antibody captured, antigen as analyte
Protocol: as §1

Kd [1] [nM] | Kd [2] [nM] | IC50 Cellular Assay IL4 [nM] (HEK-Blue IL-4/IL-13 reporter cells, SEAP) [3] | Kd [4] [nM] | Binder
0.003 | 0.113 | – | – | CODV-Ig Batch ID 233 (IL4 × IL13 on HC; L1=7, L2=3, L3=5, L4=0) (bispecific antibody) chain 1: not shown chain 2: DIVLTQSPASLAVSLGQRATISCRASESVDSYGQSYMHWYQQKAGQPPKLLIYLASNLESGVPARFSGSGSRTDFTLTIDPVQAEDAATYYCQQNAEDSRTFGGGTKLEIKGGGGGGGDIQMTQSPASLSVSVGDTITLTCHASQNIDVWLSWFQQKPGNIPKLLIYKASNLHTGVPSRFSGSGSGTGFTLTISSLQPEDIATYYCQQAHSYPFTFGGGTKLEIKGGGRTVAAPSVFIFPPSDEQLKSGTASVVCLLNNFYPREAKVQWKVDNALQSGNSQESVTEQDSKDSTYSLSSTLTLSKADYEKHKVYACEVTHQGLSSPVTKSFNRGEC
0.08 | 0.046 | – | – | CODV-Ig Batch ID 203 (IL4 × IL13 on HC; L1=7, L2=3, L3=1, L4=2) (bispecific antibody) chain 1: not shown chain 2: DIVLTQSPASLAVSLGQRATISCRASESVDSYGQSYMHWYQQKAGQPPKLLIYLASNLESGVPARFSGSGSRTDFTLTIDPVQAEDAATYYCQQNAEDSRTFGGGTKLEIKGGGGGGGDIQMTQSPASLSVSVGDTITLTCHASQNIDVWLSWFQQKPGNIPKLLIYKASNLHTGVPSRFSGSGSGTGFTLTISSLQPEDIATYYCQQAHSYPFTFGGGTKLEIKGGGRTVAAPSVFIFPPSDEQLKSGTASVVCLLNNFYPREAKVQWKVDNALQSGNSQESVTEQDSKDSTYSLSSTLTLSKADYEKHKVYACEVTHQGLSSPVTKSFNRGEC
0.005 | 0.05 | – | – | CODV-Ig Batch ID 243 (IL4 × IL13 on HC; L1=3, L2=6, L3=6, L4=0) (bispecific antibody) chain 1: not shown chain 2: DIVLTQSPASLAVSLGQRATISCRASESVDSYGQSYMHWYQQKAGQPPKLLIYLASNLESGVPARFSGSGSRTDFTLTIDPVQAEDAATYYCQQNAEDSRTFGGGTKLEIKGGGDIQMTQSPASLSVSVGDTITLTCHASQNIDVWLSWFQQKPGNIPKLLIYKASNLHTGVPSRFSGSGSGTGFTLTISSLQPEDIATYYCQQAHSYPFTFGGGTKLEIKGGGGGGRTVAAPSVFIFPPSDEQLKSGTASVVCLLNNFYPREAKVQWKVDNALQSGNSQESVTEQDSKDSTYSLSSTLTLSKADYEKHKVYACEVTHQGLSSPVTKSFNRGEC
0.0081 | 0.101 | – | – | CODV-Ig Batch ID 237 (IL4 × IL13 on HC; L1=5, L2=3, L3=5, L4=2) (bispecific antibody) chain 1: not shown chain 2: DIVLTQSPASLAVSLGQRATISCRASESVDSYGQSYMHWYQQKAGQPPKLLIYLASNLESGVPARFSGSGSRTDFTLTIDPVQAEDAATYYCQQNAEDSRTFGGGTKLEIKGGGGGDIQMTQSPASLSVSVGDTITLTCHASQNIDVWLSWFQQKPGNIPKLLIYKASNLHTGVPSRFSGSGSGTGFTLTISSLQPEDIATYYCQQAHSYPFTFGGGTKLEIKGGGRTVAAPSVFIFPPSDEQLKSGTASVVCLLNNFYPREAKVQWKVDNALQSGNSQESVTEQDSKDSTYSLSSTLTLSKADYEKHKVYACEVTHQGLSSPVTKSFNRGEC
0.004 | 0.072 | – | – | CODV-Ig Batch ID 201 (IL4 × IL13 on HC; L1=5, L2=3, L3=1, L4=2) (bispecific antibody) chain 1: not shown chain 2: DIVLTQSPASLAVSLGQRATISCRASESVDSYGQSYMHWYQQKAGQPPKLLIYLASNLESGVPARFSGSGSRTDFTLTIDPVQAEDAATYYCQQNAEDSRTFGGGTKLEIKGGGGGDIQMTQSPASLSVSVGDTITLTCHASQNIDVWLSWFQQKPGNIPKLLIYKASNLHTGVPSRFSGSGSGTGFTLTISSLQPEDIATYYCQQAHSYPFTFGGGTKLEIKGGGRTVAAPSVFIFPPSDEQLKSGTASVVCLLNNFYPREAKVQWKVDNALQSGNSQESVTEQDSKDSTYSLSSTLTLSKADYEKHKVYACEVTHQGLSSPVTKSFNRGEC
0.0093 | 0.0672 | – | – | CODV-Ig Batch ID 238 (IL4 × IL13 on HC; L1=5, L2=5, L3=5, L4=2) (bispecific antibody) chain 1: not shown chain 2: DIVLTQSPASLAVSLGQRATISCRASESVDSYGQSYMHWYQQKAGQPPKLLIYLASNLESGVPARFSGSGSRTDFTLTIDPVQAEDAATYYCQQNAEDSRTFGGGTKLEIKGGGGGDIQMTQSPASLSVSVGDTITLTCHASQNIDVWLSWFQQKPGNIPKLLIYKASNLHTGVPSRFSGSGSGTGFTLTISSLQPEDIATYYCQQAHSYPFTFGGGTKLEIKGGGGGRTVAAPSVFIFPPSDEQLKSGTASVVCLLNNFYPREAKVQWKVDNALQSGNSQESVTEQDSKDSTYSLSSTLTLSKADYEKHKVYACEVTHQGLSSPVTKSFNRGEC
0.009 | 0.054 | – | – | CODV-Ig Batch ID 202 (IL4 × IL13 on HC; L1=5, L2=5, L3=1, L4=2) (bispecific antibody) chain 1: not shown chain 2: DIVLTQSPASLAVSLGQRATISCRASESVDSYGQSYMHWYQQKAGQPPKLLIYLASNLESGVPARFSGSGSRTDFTLTIDPVQAEDAATYYCQQNAEDSRTFGGGTKLEIKGGGGGDIQMTQSPASLSVSVGDTITLTCHASQNIDVWLSWFQQKPGNIPKLLIYKASNLHTGVPSRFSGSGSGTGFTLTISSLQPEDIATYYCQQAHSYPFTFGGGTKLEIKGGGGGRTVAAPSVFIFPPSDEQLKSGTASVVCLLNNFYPREAKVQWKVDNALQSGNSQESVTEQDSKDSTYSLSSTLTLSKADYEKHKVYACEVTHQGLSSPVTKSFNRGEC
– | – | 0.045 | 0.007 | CODV-Ig Batch ID 506 (IL4 × IL13 on HC; L1 GQPKAAP, L2 TVAAP, L3 S, L4 TK) (bispecific antibody) heavy: not shown light: DIVLTQSPASLAVSLGQRATISCRASESVDSYGQSYMHWYQQKAGQPPKLLIYLASNLESGVPARFSGSGSRTDFTLTIDPVQAEDAATYYCQQNAEDSRTFGGGTKLEIKGQPKAAPDIQMTQSPASLSVSVGDTITLTCHASQNIDVWLSWFQQKPGNIPKLLIYKASNLHTGVPSRFSGSGSGTGFTLTISSLQPEDIATYYCQQAHSYPFTFGGGTKLEIKTVAAPRTVAAPSVFIFPPSDEQLKSGTASVVCLLNNFYPREAKVQWKVDNALQSGNSQESVTEQDSKDSTYSLSSTLTLSKADYEKHKVYACEVTHQGLSSPVTKSFNRGEC
– | – | 0.033 | 0.006 | CODV-Ig Batch ID 505 (IL4 × IL13 on HC; L1 GQPKAAP, L2 TKGPS, L3 S, L4 RT) (bispecific antibody) heavy: not shown light: DIVLTQSPASLAVSLGQRATISCRASESVDSYGQSYMHWYQQKAGQPPKLLIYLASNLESGVPARFSGSGSRTDFTLTIDPVQAEDAATYYCQQNAEDSRTFGGGTKLEIKGQPKAAPDIQMTQSPASLSVSVGDTITLTCHASQNIDVWLSWFQQKPGNIPKLLIYKASNLHTGVPSRFSGSGSGTGFTLTISSLQPEDIATYYCQQAHSYPFTFGGGTKLEIKTKGPSRTVAAPSVFIFPPSDEQLKSGTASVVCLLNNFYPREAKVQWKVDNALQSGNSQESVTEQDSKDSTYSLSSTLTLSKADYEKHKVYACEVTHQGLSSPVTKSFNRGEC
– | – | 0.047 | 0.003 | CODV-Ig Batch ID 503 (IL4 × IL13 on HC; L1 ASTKGPS, L2 TVAAP, L3 S, L4 SS) (bispecific antibody) heavy: not shown light: DIVLTQSPASLAVSLGQRATISCRASESVDSYGQSYMHWYQQKAGQPPKLLIYLASNLESGVPARFSGSGSRTDFTLTIDPVQAEDAATYYCQQNAEDSRTFGGGTKLEIKASTKGPSDIQMTQSPASLSVSVGDTITLTCHASQNIDVWLSWFQQKPGNIPKLLIYKASNLHTGVPSRFSGSGSGTGFTLTISSLQPEDIATYYCQQAHSYPFTFGGGTKLEIKTVAAPRTVAAPSVFIFPPSDEQLKSGTASVVCLLNNFYPREAKVQWKVDNALQSGNSQESVTEQDSKDSTYSLSSTLTLSKADYEKHKVYACEVTHQGLSSPVTKSFNRGEC
– | – | 0.034 | 0.001 | CODV-Ig Batch ID 501 (IL4 × IL13 on HC; L1 ASTKGPS, L2 TKGPS, L3 S, L4 RT) (bispecific antibody) heavy: not shown light: DIVLTQSPASLAVSLGQRATISCRASESVDSYGQSYMHWYQQKAGQPPKLLIYLASNLESGVPARFSGSGSRTDFTLTIDPVQAEDAATYYCQQNAEDSRTFGGGTKLEIKASTKGPSDIQMTQSPASLSVSVGDTITLTCHASQNIDVWLSWFQQKPGNIPKLLIYKASNLHTGVPSRFSGSGSGTGFTLTISSLQPEDIATYYCQQAHSYPFTFGGGTKLEIKTKGPSRTVAAPSVFIFPPSDEQLKSGTASVVCLLNNFYPREAKVQWKVDNALQSGNSQESVTEQDSKDSTYSLSSTLTLSKADYEKHKVYACEVTHQGLSSPVTKSFNRGEC
– | – | 0.049 | 0.003 | CODV-Ig Batch ID 502 (IL4 × IL13 on HC; L1 ASTKGPS, L2 TVAAP, L3 S, L4 QP) (bispecific antibody) heavy: not shown light: DIVLTQSPASLAVSLGQRATISCRASESVDSYGQSYMHWYQQKAGQPPKLLIYLASNLESGVPARFSGSGSRTDFTLTIDPVQAEDAATYYCQQNAEDSRTFGGGTKLEIKASTKGPSDIQMTQSPASLSVSVGDTITLTCHASQNIDVWLSWFQQKPGNIPKLLIYKASNLHTGVPSRFSGSGSGTGFTLTISSLQPEDIATYYCQQAHSYPFTFGGGTKLEIKTVAAPRTVAAPSVFIFPPSDEQLKSGTASVVCLLNNFYPREAKVQWKVDNALQSGNSQESVTEQDSKDSTYSLSSTLTLSKADYEKHKVYACEVTHQGLSSPVTKSFNRGEC
– | – | 0.042 | 0.008 | CODV-Ig Batch ID 504 (IL4 × IL13 on HC; L1 RTVAAPS, L2 QPKAA, L3 S, L4 TK) (bispecific antibody) heavy: not shown light: DIVLTQSPASLAVSLGQRATISCRASESVDSYGQSYMHWYQQKAGQPPKLLIYLASNLESGVPARFSGSGSRTDFTLTIDPVQAEDAATYYCQQNAEDSRTFGGGTKLEIKRTVAAPSDIQMTQSPASLSVSVGDTITLTCHASQNIDVWLSWFQQKPGNIPKLLIYKASNLHTGVPSRFSGSGSGTGFTLTISSLQPEDIATYYCQQAHSYPFTFGGGTKLEIKQPKAARTVAAPSVFIFPPSDEQLKSGTASVVCLLNNFYPREAKVQWKVDNALQSGNSQESVTEQDSKDSTYSLSSTLTLSKADYEKHKVYACEVTHQGLSSPVTKSFNRGEC
0.004 | 0.065 | – | – | CODV-Ig Batch ID 240 (IL4 × IL13 on HC; L1=7, L2=5, L3=5, L4=2) (bispecific antibody) chain 1: not shown chain 2: DIVLTQSPASLAVSLGQRATISCRASESVDSYGQSYMHWYQQKAGQPPKLLIYLASNLESGVPARFSGSGSRTDFTLTIDPVQAEDAATYYCQQNAEDSRTFGGGTKLEIKGGGGGGGDIQMTQSPASLSVSVGDTITLTCHASQNIDVWLSWFQQKPGNIPKLLIYKASNLHTGVPSRFSGSGSGTGFTLTISSLQPEDIATYYCQQAHSYPFTFGGGTKLEIKGGGGGRTVAAPSVFIFPPSDEQLKSGTASVVCLLNNFYPREAKVQWKVDNALQSGNSQESVTEQDSKDSTYSLSSTLTLSKADYEKHKVYACEVTHQGLSSPVTKSFNRGEC
